From article PMC4947182

Legend:
[1] = soluble expression of ectodomain in Sf9 cells; conditions: glycan lost; control: WT JUNO ectodomain
[2] = mRNA complementation of Juno KO eggs, fertilization rate; conditions: glycan lost; control: Juno KO eggs injected with WT mJuno mRNA

B1: JUNO (folate receptor 4, IZUMO1R): N185D (protein)
parent chain: MAQWWQILLGLWAVLPTLAGDKLLSVCMNSKRHKQEPGPEDELYQECRPWEDNACCTRSTSWEAHLEEPLLFNFSMMHCGLLTPACRKHFIQAICFHECSPNLGPWIQPVVPNGQEEQRVWGVPLCQEDCEDWWRACHSSLTCKSNWLHGWDWSEEKKHCPAHEPCLPFSYHFPTPDDLCEKIWNNTFKASPERRNSGRCLQKWFEPTLSNPNVEVALHFAGSALAPQLSYTLPAFSLCLLFHP
- expression_or_secretion [1]: abolishes

B2: JUNO (folate receptor 4, IZUMO1R): N73D (protein)
parent chain: MAQWWQILLGLWAVLPTLAGDKLLSVCMNSKRHKQEPGPEDELYQECRPWEDNACCTRSTSWEAHLEEPLLFNFSMMHCGLLTPACRKHFIQAICFHECSPNLGPWIQPVVPNGQEEQRVWGVPLCQEDCEDWWRACHSSLTCKSNWLHGWDWSEEKKHCPAHEPCLPFSYHFPTPDDLCEKIWNNTFKASPERRNSGRCLQKWFEPTLSNPNVEVALHFAGSALAPQLSYTLPAFSLCLLFHP
- expression_or_secretion [1]: no change
- other: sperm-egg fusion, other: percent eggs fertilized [2]: no change, 94.7 vs 93.5
